# Data reported in paper PMC10113545, “OsWRKY76 positively regulates drought stress via OsbHLH148-mediated jasmonate signaling in rice”.
# T1: GST-OsWRKY76 (Oryza sativa, UniProt Q6EPZ2 1-327)
# T1 sequence: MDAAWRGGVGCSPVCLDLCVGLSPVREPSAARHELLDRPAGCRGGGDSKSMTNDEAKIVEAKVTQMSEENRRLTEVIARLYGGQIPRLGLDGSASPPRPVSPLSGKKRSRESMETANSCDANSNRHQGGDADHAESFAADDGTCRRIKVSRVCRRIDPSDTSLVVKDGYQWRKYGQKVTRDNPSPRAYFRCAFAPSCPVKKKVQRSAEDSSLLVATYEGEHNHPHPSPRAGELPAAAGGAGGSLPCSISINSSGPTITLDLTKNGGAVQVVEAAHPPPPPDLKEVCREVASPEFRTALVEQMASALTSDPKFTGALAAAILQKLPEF
# B1: OsDREB1E probe (6-FAM) (dsDNA)
# DNA 1: GCACGGGTAGTTTTGACCTATAGGAGTGTA
# DNA 2: TACACTCCTATAGGTCAAAACTACCCGTGC
# B2: OsDREB1E unlabeled competitor probe (dsDNA)
# DNA 1: B1 DNA 1
# DNA 2: B1 DNA 2
# Legend:
# GST-OsWRKY76 [1] = biological target: T1, GST-OsWRKY76; test: EMSA; EMSA as in Gao et al. 2019; buffer, salt, pH and temperature not stated; conditions: protein: recombinant; tags: N-terminal GST (pGEX-4T-3); label: 6-FAM 5' end (strand(s) not specified); blunt
# GST-OsWRKY76 [2] = biological target: T1, GST-OsWRKY76; test: competition; 10x and 50x molar excess of unlabeled probe reduced the N1 shift; EMSA as in Gao et al. 2019; buffer, salt, pH and temperature not stated; conditions: protein: recombinant; tags: N-terminal GST (pGEX-4T-3); blunt
Binder,binding result (GST-OsWRKY76 [1]),binding result (GST-OsWRKY76 [2])
B1,binds,–
B2,–,binds
